Experimental data published in publication PMC9784857, “In Vitro Characterization of a Nuclear Receptor-like Domain of the Xylanase Regulator 1 from Trichoderma reesei” (Journal of Fungi, 2022).
Positions count from the first letter of the chain named.

What was measured:
[1] = molecular target: T1, Xyr1 (Xylanase regulator 1) (Trichoderma reesei, UniProt G0RLE8); assay: far-UV circular dichroism, ligand-induced conformational change; type: binding; details: 250 nM protein, buffer A (50 mM Tris, 200 mM NaCl, 50 mM NaH2PO4, 10% glycerol) pH 7.5, 22 °C; sugar 40-1000 nM; no added DNA; proposed allosteric
T1 construct: full coding region, codon-optimised synthetic gene, C-terminal His6 tag (not reported cut), pET28a (pTS1), E. coli BL21(DE3)pLysS; 105 kDa; monomer and homodimer
Source text: far-UV circular dichroism, ligand-induced conformational change on Xyr1 (Xylanase regulator 1) | All three carbohydrates cause a change in the Xyr1 secondary structure

[2] = molecular target: T1, Xyr1 (Xylanase regulator 1); assay: as above; type: binding; details: 250 nM protein, buffer A (50 mM Tris, 200 mM NaCl, 50 mM NaH2PO4, 10% glycerol) pH 7.5, 22 °C, sugar 40-1000 nM, no added DNA, proposed allosteric
[3] = molecular target: Xylanase regulator 1 with the A824V mutation (Xyr1_(A824V)) (Trichoderma reesei) (UniProt G0RLE8); assay: native gel or EMSA; blue native PAGE (BN-PAGE), 200 nM of each protein, non-denaturing conditions; second dimension SDS-PAGE, identity confirmed by Western blot; also run with target DNA or carbohydrates as controls (Figure S1)
[4] = molecular target: T2, Xyr1 (Xylanase regulator 1) (Trichoderma reesei, UniProt G0RLE8 1-920); assay: CD spectroscopy titration (222 nm); no carbohydrate; Engel fit, n = 2; Buffer A: 50 mM Tris, 200 mM NaCl, 50 mM NaH2PO4, 10% glycerol, pH 7.5, 22 °C; CD: 250 nM protein, DNA 0-900 nM; EMSA: 15 ng probe, 10 min, 0.2 µg/µL p(dIdC) plus unspecific duplex CKT067/CKT068; details: protein: recombinant; tags: C-terminal His6; chain copies: 2; blunt
T2 sequence: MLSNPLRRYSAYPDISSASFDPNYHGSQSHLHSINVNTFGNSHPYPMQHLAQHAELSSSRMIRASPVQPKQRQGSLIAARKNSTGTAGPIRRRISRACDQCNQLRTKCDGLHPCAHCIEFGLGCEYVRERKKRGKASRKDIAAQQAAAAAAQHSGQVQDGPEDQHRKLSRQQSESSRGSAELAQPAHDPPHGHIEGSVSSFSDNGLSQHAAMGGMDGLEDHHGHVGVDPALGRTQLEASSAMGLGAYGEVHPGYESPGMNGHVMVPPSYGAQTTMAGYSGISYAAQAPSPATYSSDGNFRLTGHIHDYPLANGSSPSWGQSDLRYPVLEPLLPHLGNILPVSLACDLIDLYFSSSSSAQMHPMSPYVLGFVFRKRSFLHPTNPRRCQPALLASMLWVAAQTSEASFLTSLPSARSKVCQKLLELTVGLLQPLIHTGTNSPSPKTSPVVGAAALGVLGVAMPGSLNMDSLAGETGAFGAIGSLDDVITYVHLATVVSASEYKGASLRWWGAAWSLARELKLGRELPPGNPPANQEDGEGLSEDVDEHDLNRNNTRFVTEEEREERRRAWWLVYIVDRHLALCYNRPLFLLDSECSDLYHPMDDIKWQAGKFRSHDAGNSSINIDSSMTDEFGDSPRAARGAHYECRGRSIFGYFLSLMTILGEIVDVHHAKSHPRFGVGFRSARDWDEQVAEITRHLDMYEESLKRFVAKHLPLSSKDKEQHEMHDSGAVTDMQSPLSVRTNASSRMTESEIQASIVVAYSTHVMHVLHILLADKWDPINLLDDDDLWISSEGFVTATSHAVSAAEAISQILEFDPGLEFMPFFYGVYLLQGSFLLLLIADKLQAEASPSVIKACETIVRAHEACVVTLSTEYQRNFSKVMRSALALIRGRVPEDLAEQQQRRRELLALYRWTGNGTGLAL

Xyr1A824V = molecular target: T3, Xyr1A824V (Trichoderma reesei, UniProt G0RLE8 1-920, A804V); assay: as above; details: protein: recombinant; tags: C-terminal His6; chain copies: 2; blunt
T3 sequence: T2 sequence with A804V

[5] = molecular target: the molecule itself; assay: native gel or EMSA; blue native PAGE (BN-PAGE), 200 nM of each protein, non-denaturing conditions; second dimension SDS-PAGE, identity confirmed by Western blot; also run with target DNA or carbohydrates as controls (Figure S1)

## O=P(O)(O)OC[C@H]1OC(O)[C@H](O)[C@@H](O)[C@@H]1O (stereo partly drawn) [D-glucose-6-phosphate]
[1]
  loss of α-helix structures: 21%

## OC1OC[C@@H](O)[C@H](O)[C@H]1O (stereo partly drawn) [D-xylose]
[2]
  loss of α-helix structures (up to): 31%

## Xylanase regulator 1 with the A824V mutation (Xyr1_(A824V)) (from UniProt G0RLE8 1-920)
[3]
  stoichiometry N: 2

## OC[C@H]1O[C@@H](O[C@H]2C(O)O[C@H](CO)[C@@H](O)[C@@H]2O)[C@H](O)[C@@H](O)[C@@H]1O (stereo partly shown) [sophorose]
[2]; spectra not shown, stated highly similar to D-xylose
  loss of α-helix structures (up to): 31%

B1: xyn1 URR fragment (-430 to -396), Pxyn1f/Pxyn1r (dsDNA)
DNA 1: TTGGCAGGCTAAATGCGACATCTTAGCCGGATGCA
DNA 2: TGCATCCGGCTAAGATGTCGCATTTAGCCTGCCAA
[4]
  Kd: 128 nM
Xyr1A824V
  Kd: 523 nM

B2: Xylanase regulator 1 (Xyr1), wild type (natural protein)
chain: T2 sequence
[5]
  stoichiometry N: 2
